Measurements: the RNAGym collection of RNA variant scans (doi:10.7554/elife.80360)

B1: CPEB3 Ribozyme (parent)
chain: GGGGGCCACAGCAGAAGCGUUCACGUCGCGGCCCCUGUCAGAUUCUGGUGAAUCUGCGAAUUCUGCUGU

Variants of: B1
Test: self-cleavage, relative activity (ratio to wild type); higher = more cleavage; co-transcriptional

Going from C9G U20C to C9U C27G, the self-cleavage falls from 0.254 to 0.203.

Compared with C9G G41A, A10C U21G is lower in self-cleavage: 0.872 for the first, 0.535 for the second.

Compared with A10C U21C, C9G G17U is lower in self-cleavage: 0.905 for the first, 0.68 for the second.

Going from C9G G17A to A10C U36A, the self-cleavage falls from 0.66 to 0.226.

First: A10C U36C
Second: A10C U36G
The self-cleavage of the first is higher: 0.966 for the first, 0.246 for the second.

First: A10C U49G
Second: C9U C54U
The self-cleavage of the first is higher: 1.04 for the first, 0.988 for the second.

Going from C9U G65A to A10C C39U, the self-cleavage falls from 0.965 to 0.877.

Going from C9G G48U to C9U U26G, the self-cleavage falls from 1.01 to 0.942.

Going from C9U U26A to C9G G50A, the self-cleavage rises from 0.929 to 1.01.

Going from C9G G50U to A10C G56U, the self-cleavage falls from 1.02 to 0.936.

Compared with A10C G56A, A10C C22A is lower in self-cleavage: 0.989 for the first, 0.161 for the second.

First: C9U C29U
Second: A10C C45G
The self-cleavage of the first is lower: 0.874 for the first, 1.05 for the second.

First: C9U U69C
Second: C9G U49C
The self-cleavage of the first is higher: 1.07 for the first, 1.01 for the second.

First: C9G U49G
Second: C9G U49A
The self-cleavage of the first is lower: 0.954 for the first, 1 for the second.

First: A10C C33U
Second: C9G U55A
The self-cleavage of the first is higher: 0.98 for the first, 0.929 for the second.

First: A10C G25U
Second: C9U G56U
The self-cleavage of the first is lower: 0.0666 for the first, 0.971 for the second.

First: A10C G41C
Second: A10C G41U
The self-cleavage of the first is lower: 0.798 for the first, 0.826 for the second.

Compared with A10C G41A, C9U is higher in self-cleavage: 0.824 for the first, 1.01 for the second.

Going from A10C C29U to A10C U38G, the self-cleavage rises from 0.221 to 0.248.

Compared with A10C U38A, C9U C12A is lower in self-cleavage: 0.869 for the first, 0.785 for the second.

First: C9U C12G
Second: C9U C12U
The self-cleavage of the first is lower: 0.976 for the first, 1.01 for the second.

Going from C9U U62C to C9U U62A, the self-cleavage rises from 0.966 to 0.997.

First: C9U A59U
Second: C9U A59C
The self-cleavage of the first is higher: 0.888 for the first, 0.877 for the second.

Compared with C9U G17U, C9U G17C is lower in self-cleavage: 0.832 for the first, 0.32 for the second.

First: C9G U36A
Second: A10C G19C
The self-cleavage of the first is higher: 0.256 for the first, 0.097 for the second.

Compared with A10C G19U, A10C U62A is higher in self-cleavage: 0.446 for the first, 0.926 for the second.

Going from C9U C22A to C9U C22G, the self-cleavage falls from 0.226 to 0.21.

First: C9U G30A
Second: C9U G30C
The self-cleavage of the first is lower: 0.972 for the first, 0.981 for the second.

First: A10C U55G
Second: C9G U53A
The self-cleavage of the first is lower: 0.799 for the first, 0.98 for the second.

First: C9G U64G
Second: A10C A52U
The self-cleavage of the first is lower: 0.936 for the first, 0.985 for the second.

Going from A10C A52C to C9G G28C, the self-cleavage falls from 0.986 to 0.149.

First: C9G G28A
Second: C9U G19C
The self-cleavage of the first is higher: 0.264 for the first, 0.143 for the second.

Going from C9U C39U to C9U U20G, the self-cleavage falls from 0.935 to 0.17.

Going from C9U A13G to C9U G47U, the self-cleavage falls from 1.04 to 1.02.

First: C9U G47C
Second: A10C A42G
The self-cleavage of the first is higher: 1.06 for the first, 0.896 for the second.

First: A10C A42C
Second: C9U A52G
The self-cleavage of the first is higher: 0.961 for the first, 0.673 for the second.

Going from A10C C34G to C9U G14U, the self-cleavage rises from 0.868 to 0.898.

Compared with C9U G14C, C9U A51U is higher in self-cleavage: 0.747 for the first, 1 for the second.

Going from C9G G58A to C9G U38C, the self-cleavage falls from 1.01 to 0.997.

First: C9G G11U
Second: C9G G11C
The self-cleavage of the first is higher: 0.922 for the first, 0.721 for the second.

Compared with A10C G48U, A10C G48C is lower in self-cleavage: 1.02 for the first, 0.992 for the second.

First: A10C G31C
Second: A10C C63G
The self-cleavage of the first is lower: 0.233 for the first, 0.629 for the second.

Going from C9G G19U to C9G G19C, the self-cleavage falls from 0.643 to 0.133.

First: A10C U53G
Second: A10C G28C
The self-cleavage of the first is higher: 0.927 for the first, 0.102 for the second.

Going from C9U C45G to A10C C54U, the self-cleavage falls from 1.07 to 1.02.

Going from A10C C54A to A10C C54G, the self-cleavage rises from 0.896 to 0.993.

Going from C9U A15G to C9U A15U, the self-cleavage falls from 1.05 to 0.931.

First: C9G U44G
Second: A10C A40G
The self-cleavage of the first is lower: 0.96 for the first, 0.976 for the second.

Going from C9G G31A to C9G U67A, the self-cleavage rises from 0.936 to 0.959.

Compared with C9U C66G, C9U G50A is higher in self-cleavage: 0.921 for the first, 1.02 for the second.

First: C9G U46G
Second: C9G U46C
The self-cleavage of the first is higher: 1 for the first, 0.937 for the second.

First: C9G G30C
Second: C9G G30U
The self-cleavage of the first is higher: 0.948 for the first, 0.759 for the second.

Going from C9G G30A to C9U C57G, the self-cleavage falls from 0.975 to 0.334.

Going from C9U A60U to C9U U61C, the self-cleavage rises from 0.538 to 0.866.

First: C9U U21G
Second: C9U U21A
The self-cleavage of the first is lower: 0.801 for the first, 0.932 for the second.

Going from C9G G14A to C9U A16G, the self-cleavage rises from 0.783 to 0.956.

Going from C9U A16U to C9U A40C, the self-cleavage falls from 0.864 to 0.841.

First: A10C G37A
Second: A10C U46C
The self-cleavage of the first is lower: 0.242 for the first, 0.98 for the second.

Compared with A10C C18U, A10C C18A is lower in self-cleavage: 0.882 for the first, 0.12 for the second.

First: A10C U44G
Second: C9G U61G
The self-cleavage of the first is higher: 1.02 for the first, 0.958 for the second.

First: C9U G68C
Second: C9G C66A
The self-cleavage of the first is higher: 1.03 for the first, 0.831 for the second.

First: A10C G11C
Second: C9U G37U
The self-cleavage of the first is higher: 0.764 for the first, 0.432 for the second.

Compared with C9U G37C, C9U G28U is lower in self-cleavage: 0.224 for the first, 0.169 for the second.

Compared with A10C G17U, A10C A23G is higher in self-cleavage: 0.464 for the first, 0.94 for the second.

Compared with A10C U43A, A10C U43C is higher in self-cleavage: 0.892 for the first, 0.965 for the second.

Compared with A10C U43G, A10C C24G is lower in self-cleavage: 0.808 for the first, 0.478 for the second.

First: C9G G56U
Second: C9G G56C
The self-cleavage of the first is higher: 0.97 for the first, 0.924 for the second.

Compared with C9G G56A, A10C A59G is lower in self-cleavage: 1.01 for the first, 1 for the second.

First: A10C A59C
Second: C9U U53C
The self-cleavage of the first is lower: 0.832 for the first, 0.931 for the second.

Compared with C9U G48C, C9U G58A is higher in self-cleavage: 1.02 for the first, 1.03 for the second.

Compared with C9U G58U, A10C C32G is lower in self-cleavage: 1.02 for the first, 0.418 for the second.

First: A10C C66A
Second: A10C C66G
The self-cleavage of the first is lower: 0.862 for the first, 0.892 for the second.

Compared with A10C C66U, C9U C32U is higher in self-cleavage: 0.974 for the first, 1.02 for the second.

Going from C9U U36A to C9U U36C, the self-cleavage rises from 0.312 to 1.02.

Going from A10C G47C to C9U G25A, the self-cleavage falls from 1 to 0.306.

Going from C9U U44G to A10C G50C, the self-cleavage falls from 1.06 to 0.996.

First: A10C G50U
Second: C9G G47U
The self-cleavage of the first is lower: 1 for the first, 1.04 for the second.

Compared with C9G G47A, C9U G11U is lower in self-cleavage: 1.05 for the first, 0.945 for the second.

Going from C9U C34U to C9G U69C, the self-cleavage rises from 1.01 to 1.07.

First: A10C G58A
Second: C9U G41C
The self-cleavage of the first is higher: 0.961 for the first, 0.949 for the second.

First: C9U G41U
Second: C9U U43G
The self-cleavage of the first is higher: 0.974 for the first, 0.967 for the second.

First: A10C C27G
Second: A10C G14C
The self-cleavage of the first is lower: 0.0915 for the first, 0.252 for the second.

First: C9G G37A
Second: C9G G37C
The self-cleavage of the first is higher: 0.371 for the first, 0.289 for the second.

C9U C33G showed a self-cleavage of 0.974.
